The values below are quoted from earlier work in paper PMC11988805.

The target in data set [1] is unstapled BH3 peptide BH3 (Homo sapiens) (UniProt P55957).
For data set [2], the target named is stapled BH3 peptide BH3 (Homo sapiens) (UniProt P55957).

The term Kd denotes the concentration at which binding is half-saturated. In the case of Bcl-2 (from UniProt P10415), the equilibrium dissociation constant (Kd) in data set [1] is 269 nM; in data set [2] it was 38.8 nM.
